In US7470668B2, “Method of use of specific natriuretic peptide receptor c ligands, transgenic non-human mammals expressing specific natriuretic peptide receptor c antagonists and cells thereof” (Enobia Pharma Inc., priority 2005, dated 2008):

Columns and labels:
endogenous GC-A = biological target: T1, endogenous GC-A (Homo sapiens, UniProt P16066); experiment: ANP-stimulated cGMP in GFP-transfected HEK293 cells (endogenous GC-A); details: co-incubation with 10 nM peptide (data not shown)
T1 sequence (P16066 33-1061): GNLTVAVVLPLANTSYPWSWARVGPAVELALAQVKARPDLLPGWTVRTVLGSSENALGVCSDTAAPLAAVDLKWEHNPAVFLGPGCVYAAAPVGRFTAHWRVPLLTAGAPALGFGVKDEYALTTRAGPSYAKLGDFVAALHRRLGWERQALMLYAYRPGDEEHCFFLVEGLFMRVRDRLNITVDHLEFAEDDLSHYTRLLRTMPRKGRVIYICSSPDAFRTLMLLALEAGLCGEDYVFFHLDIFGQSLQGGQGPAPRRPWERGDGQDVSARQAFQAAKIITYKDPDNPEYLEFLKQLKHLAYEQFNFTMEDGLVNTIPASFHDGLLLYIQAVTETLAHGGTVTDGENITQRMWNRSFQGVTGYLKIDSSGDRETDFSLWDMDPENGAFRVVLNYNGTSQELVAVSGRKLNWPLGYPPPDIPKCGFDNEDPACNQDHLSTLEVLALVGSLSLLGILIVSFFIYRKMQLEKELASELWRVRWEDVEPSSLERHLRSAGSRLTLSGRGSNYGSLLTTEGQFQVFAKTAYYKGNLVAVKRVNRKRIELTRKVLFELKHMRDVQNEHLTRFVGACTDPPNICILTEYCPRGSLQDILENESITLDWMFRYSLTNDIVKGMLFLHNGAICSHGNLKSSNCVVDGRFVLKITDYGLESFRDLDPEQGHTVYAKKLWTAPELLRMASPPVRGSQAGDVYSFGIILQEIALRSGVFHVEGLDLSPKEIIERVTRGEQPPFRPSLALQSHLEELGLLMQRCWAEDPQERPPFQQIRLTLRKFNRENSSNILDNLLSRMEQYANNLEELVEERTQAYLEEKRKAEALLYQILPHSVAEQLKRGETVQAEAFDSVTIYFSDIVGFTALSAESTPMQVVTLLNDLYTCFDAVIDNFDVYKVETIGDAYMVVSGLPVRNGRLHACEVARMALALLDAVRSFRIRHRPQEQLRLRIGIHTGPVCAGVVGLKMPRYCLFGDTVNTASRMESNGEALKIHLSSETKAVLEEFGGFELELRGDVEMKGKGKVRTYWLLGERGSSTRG

rat GC-A = biological target: T2, rat GC-A (Rattus norvegicus, UniProt P18910); experiment: Intracellular cGMP in GC-A transfected HEK293 cells; assay type: cell-based; details: 10 nM peptide, 15 min
T2 construct: expressed in transfected cells; host or cells: HEK293, transient, CMV-driven pBK plasmid (gift of Dr. A. De Léan)
T2 sequence (P18910 29-1057): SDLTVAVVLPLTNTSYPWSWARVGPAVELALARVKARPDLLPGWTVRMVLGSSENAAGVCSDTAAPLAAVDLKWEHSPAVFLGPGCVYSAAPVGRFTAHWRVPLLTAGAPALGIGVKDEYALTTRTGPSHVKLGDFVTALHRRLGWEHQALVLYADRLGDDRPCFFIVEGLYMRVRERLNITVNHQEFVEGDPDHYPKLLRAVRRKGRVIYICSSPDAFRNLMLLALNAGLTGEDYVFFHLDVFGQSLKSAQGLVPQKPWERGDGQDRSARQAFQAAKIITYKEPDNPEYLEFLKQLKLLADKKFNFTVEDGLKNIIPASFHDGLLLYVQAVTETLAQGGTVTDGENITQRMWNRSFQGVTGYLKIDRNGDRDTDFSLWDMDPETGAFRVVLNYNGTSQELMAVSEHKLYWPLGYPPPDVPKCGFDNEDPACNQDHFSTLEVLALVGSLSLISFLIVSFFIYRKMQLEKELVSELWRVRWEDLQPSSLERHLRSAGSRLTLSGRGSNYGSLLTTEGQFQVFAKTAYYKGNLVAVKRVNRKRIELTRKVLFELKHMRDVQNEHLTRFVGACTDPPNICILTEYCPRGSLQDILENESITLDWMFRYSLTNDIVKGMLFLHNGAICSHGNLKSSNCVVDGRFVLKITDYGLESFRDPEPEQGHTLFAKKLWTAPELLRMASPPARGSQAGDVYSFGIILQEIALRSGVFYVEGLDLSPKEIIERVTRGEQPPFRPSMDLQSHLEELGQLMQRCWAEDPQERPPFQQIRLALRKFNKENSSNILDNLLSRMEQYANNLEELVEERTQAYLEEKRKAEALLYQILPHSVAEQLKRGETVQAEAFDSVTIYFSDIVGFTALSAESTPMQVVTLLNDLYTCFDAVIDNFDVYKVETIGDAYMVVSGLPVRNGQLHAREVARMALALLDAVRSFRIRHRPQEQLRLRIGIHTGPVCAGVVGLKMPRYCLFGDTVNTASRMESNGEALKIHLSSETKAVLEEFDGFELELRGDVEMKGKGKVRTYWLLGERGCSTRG

B1: rhOstn[27-133]: N-terminal 6 histidine-tagged recombinant human Ostn amino acids 27-133 produced in E.coli, SEQ ID NO: 57 (protein)
chain: SVDVTTTEAFDSGVIDVQSTPTVREEKSATDLTAKLLLLDELVSLENDVIETKKKRSFSGFGSPLDRLSAGSVDHKGKQRKVVDHPKRRFGIPMDRIGRNRLSNSRG
modifications: N-terminal His6 tag; recombinant mature osteocrin
- effect on ANP signalling (endogenous GC-A): no effect
- intracellular cGMP response via GC-A (rat GC-A): failed to activate
